From the supplement of paper PMC9732359
± gives the uncertainty stated by the source.

Assay: protein stability index of a GFP-peptide fusion (yeast GPS) (PSI 1-4); higher = more stable; sorted into four equal gates, so the index is relative within each strain
Method in brief: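 Sequencing reads from sorted gates were used to score each peptide. The library consisted of tiled 17-residue yeast protein peptides fused downstream of GFP on a Cherry-expressing plasmid, pooled and carried in yeast. Mid-log cultures in leucine-free medium were split into four equal gates by GFP/Cherry ratio, and each gate's plasmids were PCR-amplified and Illumina-sequenced. The protein stability index adds up, over all gates, the read frequency multiplied by the gate number.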

Sequence | protein stability index (doa10∆) | protein stability index (pdr5∆) | protein stability index (san1∆) | protein stability index (ubr1∆)
YQSRGIDAMKAVAEAYN [RPN6] | 2.87 ± 0.088 | 3.1 ± 0.083 | 2.81 ± 0.077 | 2.65 ± 0.045
IQMNNSLQNNLQNNINN [SNF11] | 3.35 ± 0.093 | 3.32 ± 0.088 | 3.06 ± 0.087 | 3.31 ± 0.064
TKRSIAIVFEEIKNWIS [YMR129W/POM152] | 1.41 ± 0.043 | 1.82 ± 0.045 | 1.44 ± 0.076 | 1.91 ± 0.052
PKSTAPIFSFGKQEENG [YOR098C/NUP1] | 2.24 ± 0.053 | 2.75 ± 0.069 | 2.49 ± 0.059 | 2.38 ± 0.043
ILAMTYSENGKHDSLRY [RPN1] | 3.28 ± 0.23 |  | 2.73 ± 0.2 | 2.62 ± 0.29
EILEKCAEGIFVVKLDT [GAL11] |  |  |  | 3.72 ± 0.28
LIENCKKRNMPLQSIPE [SWI1] | 2.86 ± 0.068 | 2.86 ± 0.056 | 3.01 ± 0.051 | 3.05 ± 0.046
YSPSNEISISFDVNNID [YDL116W/NUP84] | 2.4 ± 0.095 | 2.62 ± 0.071 | 2.31 ± 0.12 | 2.58 ± 0.067
IGSNGSGKSNFFAAIRF [SMC3] | 3.03 ± 0.068 | 3.07 ± 0.066 | 3.02 ± 0.05 | 3.05 ± 0.039
ARERKTATYNDNMSEEQ [SNF2] | 3.13 ± 0.11 | 2.91 ± 0.11 | 3.46 ± 0.11 | 3.22 ± 0.085
IESQMRDLILTEYGRKY [PRP8] | 2.2 ± 0.1 | 2.04 ± 0.073 | 1.98 ± 0.098 | 3.03 ± 0.092
AISGKKTTYYYYNEEGI [RPC82] | 2.61 ± 0.067 | 2.97 ± 0.14 | 2.8 ± 0.056 | 3.06 ± 0.076
QRLVTPQRLQRKRHQRA [RPS6A] | 2.64 ± 0.059 | 3.13 ± 0.05 | 3.23 ± 0.039 | 3.09 ± 0.035
SIIQSKQDCVDWFTYSY [BRR2] | 1.58 ± 0.037 | 1.78 ± 0.037 | 1.69 ± 0.085 | 1.97 ± 0.033
KYNVNISALTQTEIKDI [PRP8] | 2.6 ± 0.082 | 2.57 ± 0.083 | 2.18 ± 0.067 | 2.75 ± 0.051
VNEDPIFHPMIHYSWSF [YML103C/NUP188] | 2.56 ± 0.056 | 2.46 ± 0.039 | 2.42 ± 0.045 | 2.49 ± 0.046
TVKLYLPEILNVLCVNI [ECM29] | 1.46 ± 0.047 | 1.49 ± 0.045 | 1.5 ± 0.074 | 1.42 ± 0.045
QEQYQTNTFEGSGNNNE [SNU114] |  | 3.59 ± 0.23 | 3.3 ± 0.13 | 
DDIVSHQGTPLGSHSSS [REC8] | 3.2 ± 0.15 | 3.37 ± 0.12 | 3.04 ± 0.16 | 3.3 ± 0.095
VNISAVDNTTEQSNSRK [YCG1] | 3.26 ± 0.23 | 2.35 ± 0.28 | 3.1 ± 0.25 | 
SKEKANFLETIASTEKP [SIR4] | 2.26 ± 0.069 | 2.28 ± 0.055 | 2.04 ± 0.1 | 2.64 ± 0.058
LERTDLKSKVIDSPELL [RPN7] | 3.17 ± 0.073 | 3.01 ± 0.083 | 3.26 ± 0.085 | 3.2 ± 0.076
VNIHHLLNEYRPHQSRE [MED7] | 2.81 ± 0.084 | 2.4 ± 0.16 | 1.81 ± 0.2 | 2.25 ± 0.1
IIKQENFNSVNDANITS [SSN2] |  | 1.1 ± 0.11 |  | 
VLPKIFNSVKSFDEWFN [SNF2] | 2.83 ± 0.18 | 2.43 ± 0.078 | 1.55 ± 0.2 | 1.77 ± 0.077
KYFTELSHYIRQCFQDN [MED1] | 2.38 ± 0.053 | 2.35 ± 0.06 | 1.92 ± 0.089 | 2.5 ± 0.038
LRSTIANLLQINVDNDP [YML103C/NUP188] | 2.21 ± 0.1 | 1.4 ± 0.13 |  | 1.15 ± 0.15

Sequence | protein stability index (doa10∆) | protein stability index (pdr5∆) | protein stability index (san1∆) | protein stability index (ubr1∆)
IDVDMDASPAPSNESCS [SRB5] | 2.6 ± 0.053 | 2.58 ± 0.05 | 2.66 ± 0.057 | 2.32 ± 0.049
IRNIVEAAAVRDLSEAS [RPS26A] | 2.07 ± 0.066 | 2.39 ± 0.082 | 2.39 ± 0.079 | 2.49 ± 0.077
GNSESKVEKGVNIEPFN [LIN1] | 3.7 ± 0.13 | 3.67 ± 0.17 | 3.46 ± 0.08 | 3.13 ± 0.079
SRMRLIRQDVNLGRAVF [PRP8] | 2.06 ± 0.085 | 2.31 ± 0.061 | 2.04 ± 0.084 | 2.35 ± 0.054
QRQYKVQLLLHINSILL [SNF11] | 1.88 ± 0.082 | 1.84 ± 0.061 | 1.89 ± 0.098 | 1.96 ± 0.057
RRRSSTNKSKRPSITEA [MED1] | 3.02 ± 0.09 | 3.15 ± 0.061 | 2.87 ± 0.08 | 3.04 ± 0.077
FFTNPNKKRPSSKKVFS [YOR098C/NUP1] | 2.85 ± 0.059 | 3.1 ± 0.054 | 3.06 ± 0.046 | 3 ± 0.05
NGKDNNNESNKNNNGDE [MED2] | 3.12 ± 0.053 | 3.17 ± 0.042 | 3.23 ± 0.034 | 3.15 ± 0.035
AMSLYHSPFPFNRTKGK [PRP8] | 2.11 ± 0.04 | 2.08 ± 0.047 | 1.65 ± 0.07 | 1.98 ± 0.03
LDTLPSEFDSRVKAMEV [RPT5] | 2.93 ± 0.085 | 3.11 ± 0.098 | 3.2 ± 0.068 | 3.36 ± 0.1
DKLLKRLKEKGSRVLIF [ISW2] | 1.35 ± 0.042 | 1.61 ± 0.059 | 1.36 ± 0.1 | 1.36 ± 0.052
LKKIRAHRGIRHFWGLR [RPS18A] | 3.03 ± 0.11 | 2.74 ± 0.078 | 2.44 ± 0.079 | 2.62 ± 0.05
VYAQQSTVQTPITASMA [PGD1] | 1.59 ± 0.056 | 1.95 ± 0.079 | 1.51 ± 0.09 | 1.86 ± 0.042
DSLTRAVKDQQKYTKEM [SNF2] | 1.47 ± 0.19 | 1.8 ± 0.11 | 1.25 ± 0.15 | 
EVEPALLLLQDYVTNPD [RPN1] |  | 1.55 ± 0.11 |  | 1.14 ± 0.17
EGSTIRYLAVTLQDIGF [YMR129W/POM152] | 2.5 ± 0.048 | 2.58 ± 0.04 | 2.52 ± 0.052 | 2.71 ± 0.041
PVPESAGKADTSIRLEG [SRB4] | 2.96 ± 0.062 | 3.19 ± 0.079 | 2.95 ± 0.055 | 3.06 ± 0.045
TIELAGGGYFSAAGMTA [FAS1] | 2.87 ± 0.12 | 3.19 ± 0.11 | 1.9 ± 0.16 | 2.84 ± 0.14
KKDIKIGTNDLFQVESA [SIR4] | 2.62 ± 0.082 | 3.22 ± 0.066 | 2.88 ± 0.07 | 2.33 ± 0.054
EKTLGKSLSKAISTGAK [RPN7] | 2.98 ± 0.19 | 3.42 ± 0.12 | 3.53 ± 0.12 | 3.57 ± 0.19
YTFKTSMRVKPSASLKL [YMR129W/POM152] | 2.42 ± 0.16 | 2.6 ± 0.11 | 2.31 ± 0.14 | 2.8 ± 0.097
ASYVNIPVIALTDLDSP [RPS0A] | 1.92 ± 0.063 | 1.81 ± 0.064 | 1.61 ± 0.17 | 1.88 ± 0.046
NGNLTSNQLISNYAASN [SWI1] | 3.13 ± 0.12 | 2.89 ± 0.1 | 2.98 ± 0.11 | 3.1 ± 0.055
SLNSMTNAKLPNVDLVT [RGR1] | 2.53 ± 0.087 | 2.74 ± 0.064 | 2.52 ± 0.061 | 2.46 ± 0.041
NNNPLQQQSSQNTVPNV [GAL11] | 2.65 ± 0.046 | 2.86 ± 0.041 | 3 ± 0.033 | 2.82 ± 0.03
LHLANEHGLQITHTENY [BRN1] | 2.71 ± 0.13 | 2.79 ± 0.13 | 2.68 ± 0.15 | 2.76 ± 0.068
